In patent publication US20200002421A1 (AbbVie / Abbott, published 2020):

T1: Human full length B7-H3 (human, UniProt Q5ZPR3 29-534)
T1 sequence: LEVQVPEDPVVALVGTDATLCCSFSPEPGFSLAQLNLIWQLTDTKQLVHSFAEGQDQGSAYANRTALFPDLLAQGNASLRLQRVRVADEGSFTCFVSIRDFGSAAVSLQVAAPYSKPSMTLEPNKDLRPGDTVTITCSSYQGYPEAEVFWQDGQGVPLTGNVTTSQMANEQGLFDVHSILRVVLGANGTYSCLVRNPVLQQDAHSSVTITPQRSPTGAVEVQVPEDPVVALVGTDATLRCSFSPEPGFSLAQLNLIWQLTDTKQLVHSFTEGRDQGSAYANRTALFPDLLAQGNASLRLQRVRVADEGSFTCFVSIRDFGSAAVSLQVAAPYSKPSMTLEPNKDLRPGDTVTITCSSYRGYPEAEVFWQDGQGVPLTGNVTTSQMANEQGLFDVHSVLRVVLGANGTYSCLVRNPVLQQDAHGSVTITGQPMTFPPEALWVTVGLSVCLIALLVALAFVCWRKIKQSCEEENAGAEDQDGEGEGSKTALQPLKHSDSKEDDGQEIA


Target: T1, Human full length B7-H3
Assay: cell-based or functional assay

Row | Binder | EC50 nM H1650 (in vitro tumor cell cytotoxicity) [nM]
1 | huAb3v2.5-CZ (antibody, human IgG1, kappa, L234A L235A, V domains shown, synthon CZ on interchain Cys) VH: EVQLVQSGAEVKKPGSSVKVSCKASGYTFSSYWMHWVRQAPGQGLEWIGLIHPESGSTNYNEMFKNRATLTVDRSTSTAYMELSSLRSEDTAVYYCAGGGRLYFDYWGQGTTVTVSS VL: DIVMTQSPLSLPVTPGEPASISCRSSQSLVHSNRDTYLRWYLQKPGQSPQLLIYKVSNRFSGVPDRFSGSGSGTDFTLKISRVEAEDVGVYYCSQSTHVPYTFGGGTKVEIKR | 0.4
2 | huAb3v2.5-TV (antibody, human IgG1, kappa, L234A L235A, V domains shown, synthon TV on interchain Cys) VH: EVQLVQSGAEVKKPGSSVKVSCKASGYTFSSYWMHWVRQAPGQGLEWIGLIHPESGSTNYNEMFKNRATLTVDRSTSTAYMELSSLRSEDTAVYYCAGGGRLYFDYWGQGTTVTVSS VL: DIVMTQSPLSLPVTPGEPASISCRSSQSLVHSNRDTYLRWYLQKPGQSPQLLIYKVSNRFSGVPDRFSGSGSGTDFTLKISRVEAEDVGVYYCSQSTHVPYTFGGGTKVEIKR | 0.53
3 | huAb3v2.5-WD (antibody, human IgG1, kappa, L234A L235A, V domains shown, synthon WD on interchain Cys) VH: EVQLVQSGAEVKKPGSSVKVSCKASGYTFSSYWMHWVRQAPGQGLEWIGLIHPESGSTNYNEMFKNRATLTVDRSTSTAYMELSSLRSEDTAVYYCAGGGRLYFDYWGQGTTVTVSS VL: DIVMTQSPLSLPVTPGEPASISCRSSQSLVHSNRDTYLRWYLQKPGQSPQLLIYKVSNRFSGVPDRFSGSGSGTDFTLKISRVEAEDVGVYYCSQSTHVPYTFGGGTKVEIKR | 0.83
4 | huAb3v2.5-LB (antibody, human IgG1, kappa, L234A L235A, V domains shown, synthon LB on interchain Cys) VH: EVQLVQSGAEVKKPGSSVKVSCKASGYTFSSYWMHWVRQAPGQGLEWIGLIHPESGSTNYNEMFKNRATLTVDRSTSTAYMELSSLRSEDTAVYYCAGGGRLYFDYWGQGTTVTVSS VL: DIVMTQSPLSLPVTPGEPASISCRSSQSLVHSNRDTYLRWYLQKPGQSPQLLIYKVSNRFSGVPDRFSGSGSGTDFTLKISRVEAEDVGVYYCSQSTHVPYTFGGGTKVEIKR | 2.59
5 | huAb3v2.5-TX (antibody, human IgG1, kappa, L234A L235A, V domains shown, synthon TX on interchain Cys) VH: EVQLVQSGAEVKKPGSSVKVSCKASGYTFSSYWMHWVRQAPGQGLEWIGLIHPESGSTNYNEMFKNRATLTVDRSTSTAYMELSSLRSEDTAVYYCAGGGRLYFDYWGQGTTVTVSS VL: DIVMTQSPLSLPVTPGEPASISCRSSQSLVHSNRDTYLRWYLQKPGQSPQLLIYKVSNRFSGVPDRFSGSGSGTDFTLKISRVEAEDVGVYYCSQSTHVPYTFGGGTKVEIKR | 0.62
6 | huAb3v2.5-AAD (antibody, human IgG1, kappa, L234A L235A, V domains shown, synthon AAD on interchain Cys) VH: EVQLVQSGAEVKKPGSSVKVSCKASGYTFSSYWMHWVRQAPGQGLEWIGLIHPESGSTNYNEMFKNRATLTVDRSTSTAYMELSSLRSEDTAVYYCAGGGRLYFDYWGQGTTVTVSS VL: DIVMTQSPLSLPVTPGEPASISCRSSQSLVHSNRDTYLRWYLQKPGQSPQLLIYKVSNRFSGVPDRFSGSGSGTDFTLKISRVEAEDVGVYYCSQSTHVPYTFGGGTKVEIKR | 0.49
7 | huAb3v2.5-AAA (antibody, human IgG1, kappa, L234A L235A, V domains shown, synthon AAA on interchain Cys) VH: EVQLVQSGAEVKKPGSSVKVSCKASGYTFSSYWMHWVRQAPGQGLEWIGLIHPESGSTNYNEMFKNRATLTVDRSTSTAYMELSSLRSEDTAVYYCAGGGRLYFDYWGQGTTVTVSS VL: DIVMTQSPLSLPVTPGEPASISCRSSQSLVHSNRDTYLRWYLQKPGQSPQLLIYKVSNRFSGVPDRFSGSGSGTDFTLKISRVEAEDVGVYYCSQSTHVPYTFGGGTKVEIKR | 0.85
8 | huAb3v2.5-YY (antibody, human IgG1, kappa, L234A L235A, V domains shown, synthon YY on interchain Cys) VH: EVQLVQSGAEVKKPGSSVKVSCKASGYTFSSYWMHWVRQAPGQGLEWIGLIHPESGSTNYNEMFKNRATLTVDRSTSTAYMELSSLRSEDTAVYYCAGGGRLYFDYWGQGTTVTVSS VL: DIVMTQSPLSLPVTPGEPASISCRSSQSLVHSNRDTYLRWYLQKPGQSPQLLIYKVSNRFSGVPDRFSGSGSGTDFTLKISRVEAEDVGVYYCSQSTHVPYTFGGGTKVEIKR | 0.71
9 | huAb13v1-CZ (antibody, human IgG1, kappa, L234A L235A, V domains shown, synthon CZ on interchain Cys) VH: EVQLQESGPGLVKPSETLSLTCAVTGYSITSGYSWHWIRQFPGNGLEWMGYIHSSGSTNYNPSLKSRISISRDTSKNQFFLKLSSVTAADTAVYYCAGYDDYFEYWGQGTTVTVSS VL: DIQMTQSPSSLSASVGDRVTITCKASQNVGFNVAWYQQKPGKSPKALIYSASYRYSGVPSRFSGSGSGTDFTLTISSLQPEDFAEYFCQQYNWYPFTFGQGTKLEIKR | 0.18
10 | huAb13v1-KZ (antibody, human IgG1, kappa, L234A L235A, V domains shown, synthon KZ on interchain Cys) VH: EVQLQESGPGLVKPSETLSLTCAVTGYSITSGYSWHWIRQFPGNGLEWMGYIHSSGSTNYNPSLKSRISISRDTSKNQFFLKLSSVTAADTAVYYCAGYDDYFEYWGQGTTVTVSS VL: DIQMTQSPSSLSASVGDRVTITCKASQNVGFNVAWYQQKPGKSPKALIYSASYRYSGVPSRFSGSGSGTDFTLTISSLQPEDFAEYFCQQYNWYPFTFGQGTKLEIKR | 179
11 | huAb13v1-XW (antibody, human IgG1, kappa, L234A L235A, V domains shown, synthon XW on interchain Cys) VH: EVQLQESGPGLVKPSETLSLTCAVTGYSITSGYSWHWIRQFPGNGLEWMGYIHSSGSTNYNPSLKSRISISRDTSKNQFFLKLSSVTAADTAVYYCAGYDDYFEYWGQGTTVTVSS VL: DIQMTQSPSSLSASVGDRVTITCKASQNVGFNVAWYQQKPGKSPKALIYSASYRYSGVPSRFSGSGSGTDFTLTISSLQPEDFAEYFCQQYNWYPFTFGQGTKLEIKR | 0.86
12 | huAb13v1-YG (antibody, human IgG1, kappa, L234A L235A, V domains shown, synthon YG on interchain Cys) VH: EVQLQESGPGLVKPSETLSLTCAVTGYSITSGYSWHWIRQFPGNGLEWMGYIHSSGSTNYNPSLKSRISISRDTSKNQFFLKLSSVTAADTAVYYCAGYDDYFEYWGQGTTVTVSS VL: DIQMTQSPSSLSASVGDRVTITCKASQNVGFNVAWYQQKPGKSPKALIYSASYRYSGVPSRFSGSGSGTDFTLTISSLQPEDFAEYFCQQYNWYPFTFGQGTKLEIKR | 0.33
13 | huAb13v1-SE (antibody, human IgG1, kappa, L234A L235A, V domains shown, synthon SE on interchain Cys) VH: EVQLQESGPGLVKPSETLSLTCAVTGYSITSGYSWHWIRQFPGNGLEWMGYIHSSGSTNYNPSLKSRISISRDTSKNQFFLKLSSVTAADTAVYYCAGYDDYFEYWGQGTTVTVSS VL: DIQMTQSPSSLSASVGDRVTITCKASQNVGFNVAWYQQKPGKSPKALIYSASYRYSGVPSRFSGSGSGTDFTLTISSLQPEDFAEYFCQQYNWYPFTFGQGTKLEIKR | 0.63
14 | huAb13v1-TX (antibody, human IgG1, kappa, L234A L235A, V domains shown, synthon TX on interchain Cys) VH: EVQLQESGPGLVKPSETLSLTCAVTGYSITSGYSWHWIRQFPGNGLEWMGYIHSSGSTNYNPSLKSRISISRDTSKNQFFLKLSSVTAADTAVYYCAGYDDYFEYWGQGTTVTVSS VL: DIQMTQSPSSLSASVGDRVTITCKASQNVGFNVAWYQQKPGKSPKALIYSASYRYSGVPSRFSGSGSGTDFTLTISSLQPEDFAEYFCQQYNWYPFTFGQGTKLEIKR | 0.22
15 | huAb13v1-SR (antibody, human IgG1, kappa, L234A L235A, V domains shown, synthon SR on interchain Cys) VH: EVQLQESGPGLVKPSETLSLTCAVTGYSITSGYSWHWIRQFPGNGLEWMGYIHSSGSTNYNPSLKSRISISRDTSKNQFFLKLSSVTAADTAVYYCAGYDDYFEYWGQGTTVTVSS VL: DIQMTQSPSSLSASVGDRVTITCKASQNVGFNVAWYQQKPGKSPKALIYSASYRYSGVPSRFSGSGSGTDFTLTISSLQPEDFAEYFCQQYNWYPFTFGQGTKLEIKR | 0.59
